Reference: patent publication US20200308299A1 (published 2020)
Where a chain is given by its changes, count along the chain named.

T1: human Glypican-1 (UniProt P35052 24-530)
T1 chain: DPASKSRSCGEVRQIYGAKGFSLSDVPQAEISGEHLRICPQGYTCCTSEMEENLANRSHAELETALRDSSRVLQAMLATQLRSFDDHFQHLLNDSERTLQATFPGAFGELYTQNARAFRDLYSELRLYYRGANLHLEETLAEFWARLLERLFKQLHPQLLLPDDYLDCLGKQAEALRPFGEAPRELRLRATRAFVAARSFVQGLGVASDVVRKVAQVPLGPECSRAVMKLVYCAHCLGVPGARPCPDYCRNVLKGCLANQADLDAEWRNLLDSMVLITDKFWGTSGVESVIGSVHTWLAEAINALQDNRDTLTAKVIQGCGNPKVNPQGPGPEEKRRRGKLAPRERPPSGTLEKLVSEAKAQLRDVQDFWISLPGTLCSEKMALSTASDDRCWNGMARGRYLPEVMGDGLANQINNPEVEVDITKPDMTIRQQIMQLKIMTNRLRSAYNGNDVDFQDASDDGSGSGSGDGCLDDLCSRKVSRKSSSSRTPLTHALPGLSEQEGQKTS

B1: anti-Glypican-1 antibody clone K090-01a033 (antibody, V domains shown)
VH: QVQLKQSGPELVKPGASVKISCKASGYSFTGYYMHWVKQSPEKSLEWIGEINPSTGDTTYNQKFKAKATLTVDKSSSTAYMQLKSLTSEDSAVYYCAREKRDDGVFAYWGQGTLVTVSS
VL: DIVMSQSPKSMSMSVGERVALSCKASENVGTYVSWYQQKPEQSPKLLIYGASNRYTGVPDRFTGSGSATDFTLTISSVQAEDLADYYCGQSYSYPLTFGAGTKLELKR
B2: anti-Glypican-1 antibody clone K090-02b006 (antibody, V domains shown)
VH: EVQLVESGGGLVKPGGSRKLSCAASGFTFSDYGMHWVRQAPEKGLEWVAYISSGSSTIYYADTVKGRFTISRDNAKNTLFLQMTSLRSEDTAIYYCVRHSYYNYDIGGYYAMDYWGQGTSVTVSS
VL: DIVLTQSPSSLSASLGERVSLTCRASQEISGYLSWLQQKPDGTIKRLIYAASTLDSGVPKRFSGSRSGSDYSLTISSLESEDFADYYCLQYASYPLTFGAGTKLEIKR
B3: anti-Glypican-1 antibody clone K090-02a010 (antibody, V domains shown)
VH: B2 VH with Q3K, S52N, E89G, I93M, V97A, N103S, I106V, Y109D, A111V
VL: DIVLTQSPKFMSTSVGDRVSITCKASQDVGTAVAWYQQKPGQSPKLLIYWASTRHTGVPDRFTGSGSGTDFTLTISNVQSEDLADYFCQQYSSYPLTFGAGTKLEIKR
B4: anti-Glypican-1 antibody clone K090-02a002 (antibody, V domains shown)
VH: B2 VH with Q3K, I93M, V97A, N103S, I106V, Y109D, A111V
VL: B3 VL with L4M, T5S
B5: anti-Glypican-1 antibody clone K090-01a009 (antibody, V domains shown)
VH: EVQLQQSGPELVKPGASVEISCKASGYSFTGYFMNWVKQSQGKSLEWIGRINPDNGDIFYNQKFKGKATLTVDKSSSTAHMELRSLTSEDSAVYYCARSWNWYFDVWGAGTTVTVSS
VL: DIQMTQSPASLSASVGETVTITCRASENIYSYLAWYQQKQGKSPQLLVYNAKTLAEGVPSRFSGSGSGTQFSLKINSLQPEDFGSYYCQHHYGTPYTFGSGTKLEIKR
B6: anti-Glypican-1 antibody clone K090-01a042 (antibody, V domains shown)
VH: QVQLQQPGAELAKPGASVKMSCKASGYTFTRYWMHWVKQRPGQGLEWIGYINPSSGYTEYNQKFKDKATLTADKSSSTAYMQLSSLTSEDSAVYYCVRLGDYSYYFDYWGQGTTLTVSS
VL: DVVMTQTPLSLPVSLGDQASISCRSSQSIVHSNGNTYLEWYLQKPGQSPKLLIYKVSNRFSGVPDRFSGSGSGTDFTLKISRVEAEDLGVYYCFQGSHVPWTFGGGTKLELKR
B7: anti-Glypican-1 antibody clone K090-02a014 (antibody, V domains shown)
VH: EVQLQQSGPELVKPGASVKISCKASGYSFTGYYIHWVKQSPEKSLEWIGEINPSTGDITYNQKFKAKATLTVDKSSSTAYMQLKSLTSDDSAVYYCARERNYDRFAYWGQGTLVTVSS
VL: SIVMTQTPALMAASPGEKVTITCSVSSSISSSNLHWYQQKSETSPKPWIYGTSNLASGVPVRFSGSGSGTSYSLTISSMEAEDAATYYCQQWSSYPLTFGAGTKLEIKR
B8: anti-Glypican-1 antibody clone K090-01a030 (antibody, V domains shown)
VH: QVQLQQSGAELVRPGTSVKMSCKAAGYTFTNYWIGWVKQRPGHGLEWIGDIYPGGGYTHYNEKFKGKATLTADTSSSTAYMQLSSLTSEDSAIYYCARERVYYDGSRYFDVWGAGTTVTVSS
VL: DIKMTQSPKFLPVSAGDRVTMTCKASQSVGNNVAWYQQKPGQSPKLLIYYASNRYTGVPDRFTGSGSGTDFTFTISSVQVEDLAVYFCQQHYSSPWTFGGGTKLEIKR
B9: anti-Glypican-1 antibody clone K090-01a017 (antibody, V domains shown)
VH: B8 VH with Q1E, A9G, I51L, Y103F
VL: B8 VL with D1S, K3V, S7T
B10: anti-Glypican-1 antibody clone K090-01a026 (antibody, V domains shown)
VH: B8 VH with Q3H, Y108F
VL: B8 VL with K3V, T5S
B11: anti-Glypican-1 antibody clone K090-01a002 (antibody, V domains shown)
VH: B1 VH with Q1E, K5Q, A24S, G31R, Q39H, F106L
VL: B8 VL with K3Q, W96L, G100A, I106L
B12: GPC1 (other)
chain: T1 chain

Target: T1, human Glypican-1
Assay: FACS

Kd [nM] | Binder
0.583 | B1
3.2 | B2
2.25 | B3
2.25 | B4
4.47 | B5
6.36 | B6
1.72 | B7
5.24 | B8
5.92 | B9
11.2 | B10
0.638 | B11

What follows are binders tested against clone18 (assay: Biacore).

Kd [nM] | Binder
3.21 | B12

What follows are binders tested against clone4 (assay: Biacore).

Kd [nM] | Binder
3.21 | B12

What follows are binders tested against clone18 (assay: FACS).

Kd [nM] | Binder
1.52 | B12

These binders were tested against clone4 (assay: FACS).

Kd [nM] | Binder
0.804 | B12

Target: T1, human Glypican-1
Assay: Biacore

Kd [nM] | Binder
8.9 | B1
16.3 | B2
1.28 | B3
1.12 | B4
26.9 | B5
16.2 | B6
2.52 | B7
42.8 | B8
24.9 | B9
12400 | B10
4.99 | B11
